This is an account of results in EP0833843B1.

In the assay the target is MC1-R (melanocyte-stimulating hormone receptor). In words: inhibition of MC1-R activation by the purified recombinant ASP preparation; assay details not given (Ollmann et al., in preparation).

A word on the Ki: it is the dissociation constant of the complex between target and ligand, obtained from inhibition or displacement.

Turning to “Recombinant mouse agouti signal protein (ASP) (ligand)”, the Ki was determined as 0.22 nM.
